Results published in patent US20230338565A1, “ANTIBODY DRUG CONJUGATE, PREPARATION METHOD THEREFOR AND USE THEREOF” (SICHUAN KELUN-BIOTECH BIOPHARMACEUTICAL CO., LTD., priority 2020, published 2023).

Legend:
[1] = target: T1, human Claudin 18.2 on cell membrane (Homo sapiens, UniProt P56856); experiment: Affinity to HEK293T-Claudin 18.2 by flow cytometry; settings: binding to HEK293T-Claudin 18.2 cells
T1 construct: expressed in transfected cells
Method: (§1) The affinity of 2C6.9-hz21 to human Claudin 18.2 on cell membrane was detected using HEK293T-Claudin 18.2 cells. The specific procedures were as follows: HEK293T-Claudin 18.2 cells were detached and centrifuged, followed by being washed twice with PBS. And then the cells were resuspended in PBS containing 1% BSA and were plated into a 96-well tip bottom plate at 300000 cells per well in a volume of 50 μl for 20 wells in total. […] of 2C6.9-hz21 and IMAB362 antibody were separately then added with 11 concentrations starting from 1000 nM with three-fold dilution to each well. Human IgG was served as negative control. The reactions were mixed well and incubated for 1 h at 4° C. in the dark, followed by three times of washing with PBS, the FITC-labelled anti-human Fc secondary antibody (Biolegend, 409322) was added and incubated for 0.5 h at 4° C. in the dark. Detection was performed by flow cytometry (Beckman, Cytoflex) after being washed for three times with PBS.

[2] = system: HEK293T-Claudin 18.2 cells; experiment: ADCC, NK cell mediated killing assay; assay type: cell-based, human; settings: NK92MI-CD16a effector cells, LDH detection
Method: 2C6.9 belongs to IgG1 subtype and has relative strong antibody-dependent cell-mediated cytotoxicity (ADCC). NK cell mediated killing assay was used to determine the ADCC activity of 2C6.9. The specific procedures were as follows: HEK293T-Claudin 18.2 cells were harvested and centrifuged, followed by adjustment of cell density. 1×10^4/well of cells were plated on a plate and incubated overnight. The medium was removed on the next day. NK92MI-CD16a cells (Huabo Biopharm) were centrifuged, resuspended in MEMA medium and adjusted to 1×10^6/mL, then 50 μL/well cells were added to the corresponding wells. 2C6.9-hz21 and IMAB362 antibodies were diluted with MEMA medium. For HEK293T-Claudin18.2 cells, 10 antibody concentrations were tested, starting from 40 μg/mL with 5-fold dilution. For NUGC-4 cells, 11 antibody concentrations were tested, starting from 2 mg/mL with 5-fold dilution. 50 μL/well of the diluted antibodies were added to the corresponding wells and the reactions were left to stand in incubator at 37° C., 5% CO2 and incubated for 5.5 h. Lysis buffer was then added to the positive control well and incubated for another 0.5 h. 50 μL/well of Lactate Dehydrogenase (LDH) detection agent (DOJINDO LABORATORISE, CK12) were added to the wells and the absorbance at 490 nm were taken every 10 min on a microplate reader (MD, SpectraMax M2). […]

human Claudin 18.2 = target: T2, human Claudin 18.2 (Homo sapiens, UniProt P56856); experiment: Cell ELISA on L929-Claudin 18.2 cells; settings: binding to L929-Claudin 18.2 cells, Cellular ELISA
T2 construct: expressed in transfected cells; cells formaldehyde-fixed for the cell ELISA
Method: Human Claudin18.2 belongs to the tetraspanin family and has a complex structure. Cell ELISA was thus carried out to maintain the structure of Claudin18.2. The stable cell lines L929-Claudin 18.2 constructed in 6.1 were used for detection. Specifically, L929-Claudin 18.2 adherent cells were detached by 2 mM EDTA treatment. The cells were resuspended and adjusted to 2×10^5/mL and 100 μL of the resuspension was plated into a 96-well plate and incubated overnight at 37° C. The next day, the media was removed, and the plate was washed with PBS once. 100 μL/well 4% formaldehyde was added to the plate. After 30 min of incubation at room temperature, formaldehyde was removed, followed by being washed twice with PBS. Blocking buffer (PBS containing 2% BSA) was then added to the plate at 100 μL/well, and incubated at 37° C. for 2 h. After removal of blocking buffer, 100 μL/well of serially diluted antibodies (starting from 1 μM, with 4-fold dilution, for a total of 11 concentrations) were added to the corresponding wells, which were incubated at 37° C. for 2 h afterwards. The plate was washed with 250 μL PBST for 5 times, and was allowed to stand for 2 min each time. […] The OD450 nm absorbance values were obtained on a plate reader (MD, SpectraMax M2) and the results were subjected to curve fitting by Graphpad Prism. […]

human Claudin18.2 [3] = target: T3, human Claudin18.2 (human, UniProt P56856-2 1-261); experiment: flow cytometry on HEK293T-Claudin 18.2 cells, FITC anti-human Fc secondary antibody
T3 construct: whole, on cells; Overexpressed on HEK293T, L929, KATOIII, NCI-N87 and BaF/3 cells, and endogenous on NUGC-4 cells; In the cell ELISA the L929-Claudin 18.2 cells were fixed with 4% formaldehyde; also called CLDN18.2
Method: as §1, with “The” for “The affinity of 2C6.9-hz21 to human Claudin 18.2 on cell membrane was detected using HEK293T-Claudin 18.2 cells. The”

human Claudin18.2 [4] = target: T3, human Claudin18.2; experiment: cell-based or functional assay
human Claudin18.2 [5] = target: T3, human Claudin18.2; experiment: cell ELISA on formaldehyde-fixed L929-Claudin 18.2 cells, HRP anti-human IgG
Method: (§2) Human Claudin18.2 belongs to the tetraspanin family and has a complex structure. Cell ELISA was thus carried out to maintain the structure of Claudin18.2. […] The cells were resuspended and adjusted to 2×10⁵/mL and 100 μL of the resuspension was plated into a 96-well plate and incubated overnight at 37° C. The next day, the media was removed, and the plate was washed with PBS once. 100 μL/well 4% formaldehyde was added to the plate. After 30 min of incubation at room temperature, formaldehyde was removed, followed by being washed twice with PBS. Blocking buffer (PBS containing 2% BSA) was then added to the plate at 100 μL/well, and incubated at 37° C. for 2 h. After removal of blocking buffer, 100 μL/well of serially diluted antibodies (starting from 1 μM, with 4-fold dilution, for a total of 11 concentrations) were added to the corresponding wells, which were incubated at 37° C. for 2 h afterwards. The plate was washed with 250 μL PBST for 5 times, and was allowed to stand for 2 min each time. 100 μL/well of horseradish peroxidase labeled anti-Human IgG secondary antibody (HRP-anti-Human IgG, Jackson ImmunoResearch, 109-035-003) diluted 1:10000 in PBS (containing 2% BSA) was added to the plate. […] The OD450 nm absorbance values were obtained on a plate reader (MD, SpectraMax M2) and the results were subjected to curve fitting by Graphpad Prism.

human Claudin18.2 [6] = target: T3, human Claudin18.2; experiment: cell-based or functional assay; remark: listed apart in the source
human Claudin18.1 = target: T4, human Claudin18.1 (human, UniProt P56856 1-261); experiment: flow cytometry on HEK293T-human Claudin 18.1 cells, FITC anti-human Fc secondary antibody
T4 construct: whole, on cells
Method: The specificity of candidate antibodies was detected by FACS. […] After being washed twice with PBS, the cells were resuspended with PBS containing 1% BSA. 300000 cells for each cell line were added with the candidate antibodies at a final concentration of 1000 nM, mixed well, and incubated for 1 h at 4° C., protected from light. Then the cells were washed for three times with PBS and FITC-labeled anti-human Fc secondary antibody (BioLegend, 409322) was added, followed by 0.5 h of incubation at 4° C. in the dark. Detection was performed by flow cytometry (Beckman, Cytoflex) after being washed with PBS for three times.

human Claudin18.2 [7] = target: T3, human Claudin18.2; experiment: cell-based or functional assay; remark: listed apart in the source
human Claudin18.2 [8] = target: T3, human Claudin18.2; experiment: cell ELISA on L929-Claudin 18.2 cells
Method: as §2

Max MFI [1] | Max signal value (OD450) (human Claudin 18.2) | EC50 (human Claudin18.2 [3]) [nM] | CDC activity, EC50 value (human Claudin18.2 [4]) [µg/mL] | EC50 (human Claudin18.2 [5]) [nM] | ADCC activity, EC50 value (human Claudin18.2 [6]) [µg/mL] | binding result (human Claudin18.1) | 4-hour internalization ratio on NUGC-4 cells (flow cytometry) (human Claudin18.2 [7]) [%] | binding result (human Claudin18.2 [8]) | Molecule | Max. cytotoxicity (%) [2] [%]
156715.7 | 0.53 | – | – | – | – | – | – | – | IMAB362: control anti-Claudin 18.2 antibody, sequences from patent CN 101312989 B [reference compound] | 20
– | – | 8.22 | 3.32 | 0.15 | 0.0577 | – | – | – | IMAB362 (antibody, V domains shown) VH: QVQLQQPGAELVRPGASVKLSCKASGYTFTSYWINWVKQRPGQGLEWIGNIYPSDSYTNYNQKFKDKATLTVDKSSSTAYMQLSSPTSEDSAVYYCTRSWRGNSFDYWGQGTTLTVSS VL: DIVMTQSPSSLTVTAGEKVTMSCKSSQSLLNSGNQKNYLTWYQQKPGQPPKLLIYWASTRESGVPDRFTGSGSGTDFTLTISSVQAEDLAVYYCQNDYSYPFTFGSGTKLEIKR | –
– | – | 5.77 | 1.36 | 0.12 | 0.0677 | no binding (tested: 1000 nM) | 37.8 | – | humanized antibody 2C6.9-hz21 (antibody, human IgG1, kappa, V domains shown, Humanized from murine 2C6.9M; Expressed in Expi293F cells and purified on protein A; also called 2C6.9 mAb; humanized monoclonal antibody 2C6.9) VH: QVQLQESGPGLVKPSETLSLTCTVSGFSLTRYGVSWIRQPPGKGLEWIGVIWGEGNTNYNPSLKSRVTISKDSSKSQVSLKLSSVTAADTAVYYCARVNFGNALDYWGQGTLVTVSS VL: DIVMTQSPDSLAVSLGERATINCKSSQSLLNSGNQKNYLTWYQQKPGQPPKLLIYWASTRDSGVPDRFSGSGSGTDFTLTISSLQAEDVAVYYCQNDFIFPLTFGGGTKVEIKR | –
– | – | – | – | – | – | – | – | binds | humanized antibody 2C6.9-hz11 (antibody, human IgG1, kappa, V domains shown, Human IgG1 / kappa) VH: QVQLQESGPGLVKPSETLSLTCTVSGFSLTRYGVSWIRQPPGKGLEWIGVIWGDGNTNYNPSLKSRVTISKDSSKSQVSLKLSSVTAADTAVYYCARVNFGNALDYWGQGTLVTVSS VL: DIVMTQSPDSLAVSLGERATINCKSSQSLLNSGNQKNYLTWYQQKPGQPPKLLIYWASTRDSGVPDRFSGSGSGTDFTLTISSLQAEDVAVYYCQNDFIFPLTFGGGTKVEIKR | –
